Laboratory results: PMC3340179

Molecular target: STAT3-GFP (STAT3-EGFP fusion, unphosphorylated) (UniProt P40763)
Assay: MST

Sequence of STAT3-GFP (STAT3-EGFP fusion, unphosphorylated) (P40763 whole entry, the tested form may be a part): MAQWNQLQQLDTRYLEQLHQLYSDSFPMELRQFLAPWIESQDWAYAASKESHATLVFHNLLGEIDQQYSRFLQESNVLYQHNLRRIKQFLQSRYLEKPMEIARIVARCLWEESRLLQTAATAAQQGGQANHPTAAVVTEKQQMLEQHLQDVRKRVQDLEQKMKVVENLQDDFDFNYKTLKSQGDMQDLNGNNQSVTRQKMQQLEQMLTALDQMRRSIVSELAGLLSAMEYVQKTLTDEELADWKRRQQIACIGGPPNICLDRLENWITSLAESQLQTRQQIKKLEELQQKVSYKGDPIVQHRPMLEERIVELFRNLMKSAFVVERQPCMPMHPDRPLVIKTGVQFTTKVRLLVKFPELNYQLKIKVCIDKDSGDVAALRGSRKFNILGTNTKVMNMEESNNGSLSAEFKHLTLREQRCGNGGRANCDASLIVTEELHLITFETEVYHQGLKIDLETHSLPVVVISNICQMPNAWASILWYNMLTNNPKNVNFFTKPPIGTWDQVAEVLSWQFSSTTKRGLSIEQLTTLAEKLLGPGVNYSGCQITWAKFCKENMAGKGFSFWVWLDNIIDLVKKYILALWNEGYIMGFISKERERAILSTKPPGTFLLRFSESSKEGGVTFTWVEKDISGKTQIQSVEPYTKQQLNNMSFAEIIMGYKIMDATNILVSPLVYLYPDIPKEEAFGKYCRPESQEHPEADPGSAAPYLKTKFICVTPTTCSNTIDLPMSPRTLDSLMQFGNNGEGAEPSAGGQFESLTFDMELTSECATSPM

| Sequence | Kd [µM] |
| --- | --- |
| AAAACAAAACGAAACAAACAAACTA (double strand) [S+100] | 23.3 |
| GTTTCCGGGAAAGCAGTAGGTTTCCGGGAAAG (double strand) [GAS] | 37.9 |
